Experiment: label from the status in PepcDB records
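Further: failed if final PepcDB status was selected cloned or expressed and not failed if soluble or beyond.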

Row | Sequence | protein production
1 | MRQHGKVSEVTEKKTAVYVDDQQRILIRQLARSWLWRSELPTWLLIVTVYGGWFACVAGWRTLGLFPATLLLIWFTAWYMSLQHELIHGHPTRLAWFNQLLGTLPLAVWYPYGVYRDSHLAHHRNHLLTHPEDDPESYYVTAESWQRFSAWQRRLIHLRNTFWGRLLLAPMMDIIHTLNSALRAFREGDRRAIAMWSLHLLLLTGLLTWMAAQGFSPLWFVLAVSYPALALTKVRSFLEHRAADDPLARSVINEAGLPWRVLFLNLNYHAVHHDLPGVPWYALRQLYLHRQAAYLQRNQGFLVRGYGEWRRHFSRRAVAVNAHPGFGEQAQAGGEHG | failed
2 | MSRKRSTKPKPAAKIALKKENDQFLEALKLYEGKQYKKSLKLLDAILKKDGSHVDSLALKGLDLYSVGEKDDAASYVANAIRKIEGASASPICCHVLGIYMRNTKEYKESIKWFTAALNNGSTNKQIYRDLATLQSQIGDFKNALVSRKKYWEAFLGYRANWTSLAVAQDVNGERQQAINTLSQFEKLAEGKISDSEKYEHSECLMYKNDIMYKAASDNQDKLQNVLKHLNDIEPCVFDKFGLLERKATIYMKLGQLKDASIVYRTLIKRNPDNFKYYKLLEVSLGIQGDNKLKKALYGKLEQFYPRCEPPKFIPLTFLQDKEELSKKLREYVLPQLERGVPATFSNVKPLYQRRKSKVSPLLEKIVLDYLSGLDPTQDPIPFIWTNYYLSQHFLFLKDFPKAQEYIDAALDHTPTLVEFYILKARILKHLGLMDTAAGILEEGRQLDLQDRFINCKTVKYFLRANNIDKAVEVASLFTKNDDSVNGIKDLHLVEASWFIVEQAEAYYRLYLDRKKKLDDLASLKKEVESDKSEQIANDIKENQWLVRKYKGLALKRFNAIPKFYKQFEDDQLDFHSYCMRKGTPRAYLEMLEWGKALYTKPMYVRAMKEASKLYFQMHDDRLKRKSDSLDENSDEIQNNGQNSSSQKKKAKKEAAAMNKRKETEAKSVAAYPSDQDNDVFGEKLIETSTPMEDFATEFYNNYSMQVREDERDYILDFEFNYRIGKLALCFASLNKFAKRFGTTSGLFGSMAIVLLHATRNDTPFDPILKKVVTKSLEKEYSENFPLNEISNNSFDWLNFYQEKFGKNDINGLLFLYRYRDDVPIGSSNLKEMIISSLSPLEPHSQNEILQYYL | failed
3 | MNRLCVLGLLIGLSGSPALAAGQGESGNPPATDKERFIASLMARMSNAEKIGQLRLVSVGADHPKEALMADIRAGKVGAIFNTVTRPDIRAMQDQVRHSRLKIPLFHAYDVAHGHRTIFPISLGLAASWDPEVVARSARISALEASADGLDMSFSPMVDITRDARWGRVSEGFGEDTYLTSLLSGVMVRAYQGSNLAAPDSIMAAVKHFALYGAAEGGRDYNTVDMSLPRMFQDYLPPYKAAVDAGAGAVMVSLNTINGVPATANRWLLTDLLRQQWGFKGLTISDHGAVKELIKHGLAGNERDATRLAIQAGVDMNMNDDLYSTWLPKLLAAGEIDQADIDRACRDVLAAKYDLGLFADPYRRLGK | failed
4 | MTPEPDGPEDRLRRFATIWSRAVFPVTSTPLTRPELENRLLPLARRLSEALRARAFDAAEAKAVGAALIDAHCTDPDALSATLDCVDAYLVLYCGTPDASPGDQEALRTRASRLQHAMAAGFAQALRERTLAEQEAISVAALQAQGVVGQALHASEARFRAVFEGAAIGIGIADLEGNILQINGALLRMFGGSEQAVRGRNVTDWTHPDDAPQVWRLYEELVRGEREHYHVEKAFYRPDGTVLWTNLTVSLLRDADGRPEYQLALMEDTTERRLLNLRLRYEATHDALTGLPNRTLFFERLEKALSAGGGQRFGLCYLDLDGFKTINDSLGHAAGDRLLVEVADRLQSCATAPGEMVARLGGDEFVALTTGPDTEREVDELAGRIMNALVTPISIDGRELAVRGSIGIVEGPAGERGPAEVLRSADITMYRAKSAGGNRFELADPEADARAITRHGLTTALPAALDRNEFFIEYQPLVHLGDGSVRGAEALVRWLHPQHGVLGPDRFIPLAEHTGLIVPLGRWVLEQSVRQAREWQERHCAEAAAPLRINVNLSPCQLTHPGLVSDTVDILERSGLEPGALCLEVTESALIGADDDLLKPLRRLAEMGVDIALDDFGTGYSNLANLRRLPVSILKLDRSFTQGMQQYPADPVDLKIVEGIVTLAHSLDLAVTVEGVETGAQAEQLRILGCDTAQGWYYARPGPPERLHELALVDATG | failed
5 | MTDKFLQFPVIDPIIFSIGPVSLRWYGTMYLIGFLAAMFMANKAADRSNGLWTRDQVSDVLFYGFLGVILGGRVGYVLFYQFEYFLSDPLYLFEIWQGGMSFHGGLLGVILAVFIFARKTNKSFLAVGDFVVPLVPIGLGMGRLGNFINAELWGRQTDVSWAMVFPTDPLQVPRHPSQLYEFALEGVVLFAILYIISRKTRSLGLASGTFLIGYGVFRSIVEFFREPDAHLGLYFSFISKGQILSIPMILAGILIIYLGYLSQQKSAIAQGDKALAAGGKSGKKTVKGNN | failed
6 | MFRSKSCREETRSSSITNKYHCFSHGEKSESEPTNQQPPVMMRSYSTSTYNAYQNPTIVRDDSNNKSKRSNKVKKKGFKGLCEAEIQRKKRVASYNVYGVEGRVKGSMKKSFKWFKETCSNAVYGLW | failed
7 | MFEFILQLSLGILAVSTFLYVLRVIKGPSIPDRVVALDAIGINLIGITALVSILLNTTAYLEVILLIGILAFIGTVAFSKFLEKGEIIENDRSR | failed
8 | MPKASDIKKGSAIEHNGKVFFVKEISKLTPSGRAGATLFRMRMYDVATGAKSDESFKADDMINLADFSRRSATFSYVDGNEYVFMDSEDYTPYNFNKEAIEEELLFITEETQGLQILIVDGAPVAIELPSAVDLEIVETAPSIKGASASARTKPATMTTGLTVQVPEYIANGEKVKINTTEHKFMSRALEHHHHHH | failed
9 | MNHPDLAGKVAIVTGAGAGIGLAVARRLADEGCHVLCADIDGDAADAAATKIGCGAAACRVDVSDEQQIIAMVDACVAAFGGVDKLVANAGVVHLASLIDTTVEDFDRVIAINLRGAWLCTKHAAPRMIERGGGAIVNLSSLAGQVAVGGTGAYGMSKAGIIQLSRITAAELRSSGIRSNTLLPAFVDTPMQQTAMAMFDGALGAGGARSMIARLQGRMAAPEEMAGIVVFLLSDDASMITGTTQIADGGTIAALW | not failed
10 | MAGRRRWSTEQILDAAAELLLAGDAETFSVRKLAASLGTDSSSLYRHFRNKTELLRAVADRILLSAMDGYRPEGDWKQRLTAVALRLRESFGQQPQLAAVWGRHGSGGTGSRLMMEEVLQALRASGLPDDEIPARYHRLVILISSLITAEGGFGAVGAQEHEQGMEQFRVAVLGADPERFPALSHFAREIRPLGADRGAAFEEILAAHLAHLEAAAP | not failed
11 | MLQQLFASPILSVQTLHPSYEDHASDVFLVQTKDEEVIVRSSKMTEEPNNDFWWGCKNLFGIDPRNVHHLEYIHELLKKHTNLPIPTILQKHVLNGRKYVSVEKLTGSTLQSFVGQSDSILFSLGKGLAEIHSFQAEFIGNPSGTFQVPLEEFKSHILKVSKELVNRFYSDNTSIRNAFSTFESQLSSLPTPKEATLVLIDMDPTQFLSDGTTITGLVDTEAYAVAPRELDFISLEYVFTEKEAHAFKQGYETIMPIPNLVECRHPYRYLYRLLSIQGSVELEKWLSHPSYF | failed
12 | HFNVLADTPSGLVPLHLRSPQVPAAQQMLNFPEKNKEKPVDLQNFGLRTDIYSKKTLAKSKGASAGREWTEQETLLLLEALEMYKDDWNKVSEHVGSRTQDECILHFLRLPIEDPYLENSDASLGPLAYQPVPFSQSGNPVMSTVAFLASVVDPRVASAAAKAALEEFSRVREEVPLELVEAHVKKVQEAARASGKVDPTYGLESSCIAGTGPDEPEKLEGAEEEKMEADPDGQQPEKAENKVENETDEGDKAQDGENEKNSEKEQDSEVSEDTKSEEKETEENKELTDTCKERESDTGKKKVEHEISEGNVATAAAAALASAATKAKHLAAVEERKIKSLVALLVETQMKKLEIKLRHFEELETIMDREKEALEQQRQQLLTERQNFHMEQLKYAELRARQQMEQQQHGQNPQQAHQHSGGPGLAPLGAAGHPGMMPHQQPPPYPLMHHQMPPPHPPQPGQIPGPGSMMPGQHMPGRMIPTVAANIHPSGSGPTPPGMPPMPGNILGPRVPLTAPNGMYPPPPQQQPPPPPPADGVPPPPAPGPPASAAP | not failed
13 | MNTSDRIKSTQIALDRDLREQALLLLKEVRAVDGVDALSEQFVRGLAEPGLGHSHLIVTLNDKLVGLAATDEETTELAVHPAHRRQGIGKALIDAT | failed
14 | MISGDTLSAKKPKSVPQEEDQDPPSQSIALLDNHTDSSGSDSSTRSISSCFIFTSLLLVTCIALSAASAFAFLFFSSQKPVLSLNQISKSPAFDRSVARPLKKLDKPVVLLISSDGFRFGYQFKTKLPSIHRLIANGTEAETGLIPVFPTLTFPNHYSIVTGLYPAYHGIINNHFVDPETGNVFTMASHEPEWWLGEPLWETVVNQGLKAATYFWPGSEVHKGSWNCPQGLCQNYNGSVPFDDRVDTILSYFDLPSNEIPSFMTLYFEDPDHQGHQVGPDDPQITEAVVNIDRLIGRLIDGLEKRGIFEDVTMIMVGDHGMVGTCDKKLVVLDDLAPWIKIPSSWVQYYTPLLAIQPPSGHDAADIVAKINEGLSSGKVENGKYLKVYLKEDLPSRLHYVDSDRIPPIIGLVDEGFKVEQKKSKAKECGGAHGYDNAFFSMRTIFIGHGPMFSKGRKVPSFENVQIYNVISSILGLKAAPNNGSDEFSSSILLPRV | failed
15 | MIYDFCVIGGGIVGLATAMRLLEVYPGCSLVLMEKELSLAQHQTGHNSGVIHAGVYYAPGSFKAKLCARGAELTKSFCTEHSIPYEVCGKLVVASNKDSLARLGSLEERAKQNGLATERLDALELRRREPNVAGEGALFVKSSGIVDYGVVSNSMANVIIQSGGQILLGQTVVSIEEHGNHVNIASEGSSLSAKKLVVCAGLQSDRLATLAGLKLDCQIVPFRGEYYRLSSHLDYSVKHLIYPVPEVGLPFLGIHITRMINGGVTVGPN | failed
16 | MKVYVVVPTYNESDNIVALMEKILAQRDNIHVLVVDDNSPDGTGEIAARMSSDNPRIHVLRRSGKMGLGSAYCDGFRVALRDGADFIIEMDADFSHDPATIPALLAATDKYDVVVGSRYLNGVSVVNWPIRRLMLSYFASVYTRFVTGLALRDCTSGFKCFRRRVIESVDLDTIRSDGYSFQIEMNYRCVERGFRVGEIPIIFIDRHAGSSKMSKKIVREAVLMVWKLKLGSLVKKLTRRGDRHAALEHHHHHH | not failed
17 | MKHFDYSRGLKAPYSLQVIKSPKGKIVWYFAQPLSLAYLVMLFLGIVLTGIFWKFVPLPLIFGINLNLMIMLYFPNKVARWYTETEFEGKTGLAFLKDGFVYVKNYVLDNRSIISFERVKEIEEFSFKR | failed
18 | MSIEPVFILVRPQMGENIGAAARAMLNFGLGRLRIVDPRDGWPNPKAVAMASGAGRLLDHAGLFPTVAEAIRDCDYVFATTARGRELTKPVMTPERAMAHGRALTGEGRRVGILFGPERTGLENEDVALANAIVTVPVNPEFFSLNLAQCVLLLAYEWRRQHDETPPEVIDMARVDFASGLEVEKLGD | failed
19 | SLRPPLPPATPQEVQFVQHMLQHHAQALDLAAPMLERSQQRTVRSLALDIQLSQREQMRQMEAMLGRWGQPPGEPISPEHARMMGMASEAEVAGLSTLPVEQAERQFLRLMIRHHQGAVAMTLPMLDAAARPEVERLARQIVVTQRGEIRTMEGVLGRLDGEVPAAPMRPVEHGHGH | not failed
20 | DDLLIVRGVNLYPSEIEHAVLDINGVAPYYRIDLYEEDNLDVMELTVERAEGSSKDHSELRDDVLSRLQSVLSFTPDQLNLVNPGTIERTEVGKIQRVYDHRN | failed
21 | SLLDVAVSPDDRFILTADRDEKIRVSWAAAPHSIESFCLGHTEFVSRISVVPTQPGLLLSSSGDGTLRLWEYRSGRQLHCCHLASLQELVDPQAPQKFAASRIAFWCQENCVALLCDGTSVVYIFQLDARRQQLVYRQQLAFQHQVWDVAFEETQGLWVLQDCQEAPLVLYRPVGDQWQSVPESTVLKKVSGVLRGNWAMLEGSAGADASFSSLYKATFDNVTSYLKKKEERLQQQLEKKQRRRSPPPGPDGHAKKMRPGEATLSC | failed

Reference: a protein production outcome set (Wang et al. 2014)
